Measurements taken from patent US20180037645A1.
Where two headings read alike, the source gives them in different places.

Experiments:
[1] = target: wild-type IL-23 (His-tagged p19 / non-tagged p40) (human) (UniProt P29460); assay: cell-based or functional assay
IL-23 H53A (human) [2] = target: IL-23 H53A (human) (UniProt P29460); assay: cell-based or functional assay
IL-23 M54A (human) [3] = target: IL-23 M54A (human) (UniProt P29460); assay: cell-based or functional assay
IL-23 D55A (human) [4] = target: IL-23 D55A (human) (UniProt P29460); assay: cell-based or functional assay
Sequence of IL-23 D55A (human) (chain, as listed by the source D55A D55A, chain 1 of 2): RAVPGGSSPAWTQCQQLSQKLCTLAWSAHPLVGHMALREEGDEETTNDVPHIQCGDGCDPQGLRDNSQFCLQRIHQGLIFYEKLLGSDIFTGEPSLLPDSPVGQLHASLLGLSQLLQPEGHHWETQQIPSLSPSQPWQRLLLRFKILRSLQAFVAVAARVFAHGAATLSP
Sequence of IL-23 D55A (human) (P29460 23-328, chain 2 of 2): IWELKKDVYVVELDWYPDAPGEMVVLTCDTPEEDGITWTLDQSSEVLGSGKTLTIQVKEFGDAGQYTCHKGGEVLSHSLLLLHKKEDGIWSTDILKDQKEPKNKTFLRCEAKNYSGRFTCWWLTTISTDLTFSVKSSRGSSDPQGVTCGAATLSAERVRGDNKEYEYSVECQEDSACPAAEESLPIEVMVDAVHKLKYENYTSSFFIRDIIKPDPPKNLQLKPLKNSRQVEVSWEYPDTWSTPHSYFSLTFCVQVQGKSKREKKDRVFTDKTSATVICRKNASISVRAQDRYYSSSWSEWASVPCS

IL-23 L116A (human) [5] = target: IL-23 L116A (human) (UniProt P29460); assay: cell-based or functional assay
Sequence of IL-23 L116A (human) (chain, as listed by the source L116A L116A, chain 1 of 2): as the sequence (chain, as listed by the source D55A D55A, chain 1 of 2) above, with A36D, L97A counted along it
Sequence of IL-23 L116A (human) (P29460 23-328, chain 2 of 2): as the sequence (P29460 23-328, chain 2 of 2) above

IL-23 E112A (human) [6] = target: IL-23 E112A (human) (UniProt P29460); assay: cell-based or functional assay
Sequence of IL-23 E112A (human) (chain, as listed by the source E112A E112A, chain 1 of 2): as the sequence (chain, as listed by the source D55A D55A, chain 1 of 2) above, with A36D, E93A counted along it
Sequence of IL-23 E112A (human) (P29460 23-328, chain 2 of 2): as the sequence (P29460 23-328, chain 2 of 2) above

IL-23 D118A (human) [7] = target: IL-23 D118A (human) (UniProt P29460); assay: cell-based or functional assay
Sequence of IL-23 D118A (human) (chain, as listed by the source D118A D118A, chain 1 of 2): as the sequence (chain, as listed by the source D55A D55A, chain 1 of 2) above, with A36D, D99A counted along it
Sequence of IL-23 D118A (human) (P29460 23-328, chain 2 of 2): as the sequence (P29460 23-328, chain 2 of 2) above

[8] = target: wild-type IL-23 (His-tagged p19 / non-tagged p40) (human) (UniProt P29460); assay: cell-based or functional assay; remark: listed apart in the source
[9] = target: IL-23 alanine shave mutant M7 (human) (UniProt P29460); assay: cell-based or functional assay
Sequence of IL-23 alanine shave mutant M7 (human) (chain, as listed by the source mutant limits assumed, form in doubt, chain 1 of 2): as the sequence (chain, as listed by the source D55A D55A, chain 1 of 2) above, with A36D, W123A, E124A, T125A, Q126A, Q127A counted along it
Sequence of IL-23 alanine shave mutant M7 (human) (P29460 23-328 limits assumed, stated change not applied, form in doubt, chain 2 of 2): as the sequence (P29460 23-328, chain 2 of 2) above

[10] = target: IL-23 alanine shave mutant M9 (human) (UniProt P29460); assay: cell-based or functional assay
Sequence of IL-23 alanine shave mutant M9 (human) (chain, as listed by the source mutant limits assumed, form in doubt, chain 1 of 2): as the sequence (chain, as listed by the source D55A D55A, chain 1 of 2) above, with A36D, L97A, D99A, Q104A counted along it
Sequence of IL-23 alanine shave mutant M9 (human) (P29460 23-328 limits assumed, change not shown, form in doubt, chain 2 of 2): as the sequence (P29460 23-328, chain 2 of 2) above

[11] = target: IL-23 alanine shave mutant M10 (human) (UniProt P29460); assay: cell-based or functional assay
Sequence of IL-23 alanine shave mutant M10 (human) (chain, as listed by the source mutant limits assumed, form in doubt, chain 1 of 2): as the sequence (chain, as listed by the source D55A D55A, chain 1 of 2) above, with H34A, M35A, F144A counted along it
Sequence of IL-23 alanine shave mutant M10 (human) (P29460 23-328 limits assumed, stated change not applied, form in doubt, chain 2 of 2): as the sequence (P29460 23-328, chain 2 of 2) above

[12] = target: IL-23 alanine shave mutant M5 (human) (UniProt P29460); assay: cell-based or functional assay
Sequence of IL-23 alanine shave mutant M5 (human) (chain, as listed by the source mutant limits assumed, form in doubt, chain 1 of 2): as the sequence (chain, as listed by the source D55A D55A, chain 1 of 2) above, with H34A, M35A, A36D, E93A, L97A, D99A counted along it
Sequence of IL-23 alanine shave mutant M5 (human) (P29460 23-328 limits assumed, stated change not applied, form in doubt, chain 2 of 2): as the sequence (P29460 23-328, chain 2 of 2) above

IL-23 H53A (human) [13] = target: IL-23 H53A (human) (UniProt P29460); assay: SPR (Biacore T100), antibody captured by protein A
IL-23 M54A (human) [14] = target: IL-23 M54A (human) (UniProt P29460); assay: SPR (Biacore T100), antibody captured by protein A
IL-23 D55A (human) [15] = target: IL-23 D55A (human) (UniProt P29460); assay: SPR (Biacore T100), antibody captured by protein A
[16] = target: IL-23 alanine shave mutant M7 (human) (UniProt P29460); assay: SPR (Biacore T100), antibody captured by protein A
IL-23 L116A (human) [17] = target: IL-23 L116A (human) (UniProt P29460); assay: SPR (Biacore T100), antibody captured by protein A
[18] = target: IL-23 alanine shave mutant M9 (human) (UniProt P29460); assay: SPR (Biacore T100), antibody captured by protein A
[19] = target: IL-23 alanine shave mutant M5 (human) (UniProt P29460); assay: SPR (Biacore T100), antibody captured by protein A
IL-23 E112A (human) [20] = target: IL-23 E112A (human) (UniProt P29460); assay: SPR (Biacore T100), antibody captured by protein A
[21] = target: IL-23 alanine shave mutant M10 (human) (UniProt P29460); assay: SPR (Biacore T100), antibody captured by protein A
IL-23 D118A (human) [22] = target: IL-23 D118A (human) (UniProt P29460); assay: SPR (Biacore T100), antibody captured by protein A

Sequence of wild-type IL-23 (His-tagged p19 / non-tagged p40) (human) (chain, as listed by the source limits assumed, chain 1 of 2): as the sequence (chain, as listed by the source D55A D55A, chain 1 of 2) above, with A36D counted along it
Sequence of wild-type IL-23 (His-tagged p19 / non-tagged p40) (human) (P29460 23-328 limits assumed, chain 2 of 2): as the sequence (P29460 23-328, chain 2 of 2) above
Sequence of IL-23 M54A (human) (chain, as listed by the source M54A M54A, chain 1 of 2): as the sequence (chain, as listed by the source D55A D55A, chain 1 of 2) above, with M35A, A36D counted along it
Sequence of IL-23 M54A (human) (P29460 23-328, chain 2 of 2): as the sequence (P29460 23-328, chain 2 of 2) above
Sequence of IL-23 H53A (human) (chain, as listed by the source H53A H53A, chain 1 of 2): as the sequence (chain, as listed by the source D55A D55A, chain 1 of 2) above, with H34A, A36D counted along it
Sequence of IL-23 H53A (human) (P29460 23-328, chain 2 of 2): as the sequence (P29460 23-328, chain 2 of 2) above

Row | Substance | IC50, pSTAT3 in BaF3/huIL-23Rα/huIL-12Rβ1 transfectants [1] | IC50, pSTAT3 in BaF3/huIL-23Rα/huIL-12Rβ1 transfectants (IL-23 H53A (human) [2]) | IC50, pSTAT3 in BaF3/huIL-23Rα/huIL-12Rβ1 transfectants (IL-23 M54A (human) [3]) | IC50, pSTAT3 in BaF3/huIL-23Rα/huIL-12Rβ1 transfectants (IL-23 D55A (human) [4]) | IC50, pSTAT3 in BaF3/huIL-23Rα/huIL-12Rβ1 transfectants (IL-23 L116A (human) [5]) | IC50, pSTAT3 in BaF3/huIL-23Rα/huIL-12Rβ1 transfectants (IL-23 E112A (human) [6]) | IC50, pSTAT3 in BaF3/huIL-23Rα/huIL-12Rβ1 transfectants (IL-23 D118A (human) [7]) | IC50, pSTAT3 in BaF3/huIL-23Rα/huIL-12Rβ1 transfectants [8] | IC50, pSTAT3 in BaF3/huIL-23Rα/huIL-12Rβ1 transfectants [9] | IC50, pSTAT3 in BaF3/huIL-23Rα/huIL-12Rβ1 transfectants [10] | IC50, pSTAT3 in BaF3/huIL-23Rα/huIL-12Rβ1 transfectants [11] | also measured
1 | Merck's IL-23 p19 mAb (7G10) (antibody) | 0.18 nM | 0.19 nM | 0.27 nM | 0.18 nM | 0.24 nM | > 3 nM | 0.22 nM | 380 pM | 310 pM | 260 pM | 350 pM | –
2 | STELARA® (ustekinumab, IL-12/IL-23 p40 mAb) (antibody) | 0.067 nM | 0.078 nM | 0.081 nM | 0.077 nM | 0.054 nM | 0.033 nM | 0.052 nM | 79 pM | 59 pM | 67 pM | 71 pM | IC50, pSTAT3 in BaF3/huIL-23Rα/huIL-12Rβ1 transfectants [12]: 62 pM; ΔΔG (IL-23 H53A (human) [13]): 0.3 kcal/mol; ΔΔG (IL-23 M54A (human) [14]): 0.3 kcal/mol; ΔΔG (IL-23 D55A (human) [15]): 0.5 kcal/mol; ΔΔG [16]: 0.1 kcal/mol; ΔΔG (IL-23 L116A (human) [17]): 0.5 kcal/mol; ΔΔG [18]: 0.1 kcal/mol; ΔΔG [19]: 0.1 kcal/mol; ΔΔG (IL-23 E112A (human) [20]): 0.3 kcal/mol; ΔΔG [21]: 0.3 kcal/mol; ΔΔG (IL-23 D118A (human) [22]): -0.3 kcal/mol
